Values belong to the binder of their own block, whether it stands above or below them. *1 amine or outer side, *2 acyl side, *3 side chain or, on linkers, in order; H or OH if unused. Bridges are numbered along the chain shown (N, C = ends). Primed or numbered codes have the meaning given here. [ ]: non-standard residue; d: D form. The star is where a group is joined. Ttds = 1,13-diamino-4,7,10-trioxatridecan-succinamic acid, NCCCOCCOCCOCCCNC(=O)CCC(=O)*; Ttds(4) = 1,13-diamino-4,7,10-trioxatridecan-succinamic acid; DOTA = O=C(O)CN1CCN(CC(=O)O)CCN(CC(=O)*)CCN(CC(=O)O)CC1; Trp(5-Cl) = N[C@@H](Cc1c[nH]c2ccc(Cl)cc12)C(=O)O; Pyridine(2,6-diCH2) = c1cc(C[*:1])nc(C[*:2])c1; Phe(2,4-Cl2) = N[C@@H](Cc1ccc(Cl)cc1Cl)C(=O)O; Trp(7-aza) = N[C@@H](Cc1c[nH]c2ncccc12)C(=O)O; 2Lut″ = 2,6-lutidylidene linking two thiols; Phe(4-Cl) = N[C@@H](Cc1ccc(Cl)cc1)C(=O)O; Phe(2-Cl) = N[C@@H](Cc1ccccc1Cl)C(=O)O; 1Nal = N[C@@H](Cc1cccc2ccccc12)C(=O)O; mXylylene = c1cc(C[*:1])cc(C[*:2])c1; Hyp = O=C(O)[C@@H]1C[C@@H](O)CN1; Cysteamide = C(CS[*:3])N[*:1]; Thp = NC1(C(=O)O)CCOCC1; Aib = CC(C)(N)C(=O)O
Molecular target: human Gastric Inhibitory Peptide Receptor (GIPR) (human) (UniProt P48546)
Test: FACS competition vs biotinylated GIP-057 on CHO-K1-hGIPR cells; category D: pIC50 <=6.0

B4: DOTA-Ttds-5Clw-Pro-Glu-leu-Asp-Trp-[Cys(3MeBn)-Ile-Leu-Aib-AET] (peptide)
peptide: {DOTA-Ttds}-[Trp(5-Cl)]PE[dL]DWCIL[Aib][Cysteamide]
modifications: linker 7-11 via mXylylene
pIC50: < 6 pic50

B5: Ac-Asp-Trp-Egm-Hyp-Glu-leu-[Cys(2Lut)-Thp-Leu-Ile-Cys]-NH2 (peptide)
peptide: Ac-DW[Phe(2,4-Cl2)][Hyp]E[dL]C[Thp]LIC-NH2
modifications: linker 7-11 via Pyridine(2,6-diCH2)
pIC50: < 6 pic50

B6: DOTA-Ttds-leu-Asp-Pro-5Clw-Trp-Leu-[Cys(3MeBn)-Glu-Aib-Ile-AET] (peptide)
peptide: {DOTA-Ttds}-[dL]DP[Trp(5-Cl)]WLCE[Aib]I[Cysteamide]
modifications: linker 7-11 via mXylylene
pIC50: < 6 pic50

B8: DOTA-Ttds-Trp-Asp-Pro-5Clw-leu-Glu-[Cys(3MeBn)-Leu-Ile-Aib-AET] (peptide)
peptide: {DOTA-Ttds}-WDP[Trp(5-Cl)][dL]ECLI[Aib][Cysteamide]
modifications: linker 7-11 via mXylylene
pIC50: < 6 pic50

The next lines start with the values.

pIC50: < 6 pic50
B1: Ac-Asp-Trp-Ocf-Hyp-Glu-leu-[Cys(2Lut)-Thp-Leu-Ile-Cys]-NH2 (peptide)
peptide: Ac-DW[Phe(2-Cl)][Hyp]E[dL]C[Thp]LIC-NH2
modifications: linker 7-11 via 2Lut″

pIC50: < 6 pic50
B2: Ac-Asp-7Nw-1Ni-Pro-Glu-leu-[Cys(3MeBn)-Aib-Leu-Ile-Cys]-Ttds-Lys(DOTA)-NH2 (peptide)
peptide: Ac-D[Trp(7-aza)][1Nal]PE[dL]C[Aib]LIC-{Ttds(4)-K(DOTA)-NH2}
modifications: linker 7-11 via mXylylene

pIC50: < 6 pic50
B3: Ac-Asp-Trp-Pcf-Hyp-Glu-leu-[Cys(2Lut)-Thp-Leu-Ile-Cys]-NH2 (peptide)
peptide: Ac-DW[Phe(4-Cl)][Hyp]E[dL]C[Thp]LIC-NH2
modifications: linker 7-11 via 2Lut″

pIC50: < 6 pic50
B7: Ac-Asp-Trp-5Clw-Hyp-Glu-leu-[Cys(2Lut)-Thp-Leu-Glu-Cys]-NH2 (peptide)
peptide: Ac-DW[Trp(5-Cl)][Hyp]E[dL]C[Thp]LEC-NH2
modifications: linker 7-11 via Pyridine(2,6-diCH2)
SMILES: CC(=O)N[C@@H](CC(=O)O)C(=O)N[C@@H](Cc1c[nH]c2ccccc12)C(=O)N[C@@H](Cc1c[nH]c2ccc(Cl)cc12)C(=O)N1C[C@H](O)C[C@H]1C(=O)N[C@@H](CCC(=O)O)C(=O)N[C@H](CC(C)C)C(=O)N[C@H]1CSCc2cccc(n2)CSC[C@@H](C(N)=O)NC(=O)[C@H](CCC(=O)O)NC(=O)[C@H](CC(C)C)NC(=O)C2(CCOCC2)NC1=O
